Molecular target: NDR1 MBD and kinase domain (NDR1^MBD-KD, residues 12-418), wild type (human, UniProt Q15208 12-418)
Test: HDX-MS

NDR1 MBD and kinase domain (NDR1^MBD-KD, residues 12-418), wild type, sequence (Q15208 12-418): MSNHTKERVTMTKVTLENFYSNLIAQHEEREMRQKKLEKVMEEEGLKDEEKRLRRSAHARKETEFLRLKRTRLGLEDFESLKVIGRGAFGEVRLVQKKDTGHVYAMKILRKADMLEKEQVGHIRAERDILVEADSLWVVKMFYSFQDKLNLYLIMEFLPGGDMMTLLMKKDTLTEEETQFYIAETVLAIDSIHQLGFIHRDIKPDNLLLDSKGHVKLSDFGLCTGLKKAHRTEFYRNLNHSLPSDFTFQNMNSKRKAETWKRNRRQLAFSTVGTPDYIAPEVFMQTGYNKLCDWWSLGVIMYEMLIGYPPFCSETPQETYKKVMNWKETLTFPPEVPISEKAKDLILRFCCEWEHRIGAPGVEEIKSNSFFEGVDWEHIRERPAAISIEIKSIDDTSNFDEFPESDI

binding result: binds
B1: MOB1A (amino acids 2-216), recombinant (natural protein, human, UniProt Q9H8S9 2-216, looked up)
chain: SFLFSSRSSKTFKPKKNIPEGSHQYELLKHAEATLGSGNLRQAVMLPEGEDLNEWIAVNTVDFFNQINMLYGTITEFCTEASCPVMSAGPRYEYHWADGTNIKKPIKCSAPKYIDYLMTWVQDQLDDETLFPSKIGVPFPKNFMSVAKTILKRLFRVYAHIYHQHFDSVMQLQEEAHLNTSFKHFIFFVQEFNLIDRRELAPLQELIEKLGSKDR

Reference: PMC6087429 (Structure(London, England:1993), 2018)
